Eleven molecules from article PMC10663500, “High-throughput analysis system of interaction kinetics for data-driven antibody design” (Scientific Reports, 2023) can be followed below.

Some results are limits rather than exact numbers.

Assay [1] has as its target T1, human programmed cell death protein 1 (hPD-1) C93S (aa 24-167) (Homo sapiens, UniProt Q15116, C93S).
T1 construct: made as a fusion with a TEV site and human Fc; the Fc was cut off with TEV protease; source: Expi293F, purified (Protein A, TEV cleavage of Fc, SEC; monomer fractions); not shown: Fc (human), C-terminal, cleaved
Kind of assay: SPR; Carterra LSA; Fab from the ammonium sulfate precipitate of the culture supernatant immobilised on a NiHC200M chip; hPD-1 (1-1024 nM) or mPD-1-Fc (4-1024 nM) as analyte, fourfold dilution series, no regeneration; HBS-EP pH 7.4, 25 °C; medians over the spots of a construct, KD = koff/kon. As to conditions: one partner purified. The gist of the method: (§1)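 On a Carterra LSA at 25 °C, duplicate captures of Fabs were made on a NiHC200M chip; the Fabs came from Brevibacillus culture supernatants, were precipitated with ammonium sulfate and were redissolved in HBS-EP. Fourfold series of human PD-1 (1–1024 nM) or mouse PD-1-Fc (4–1024 nM) were passed over without regeneration, with 10 min association and 5 min dissociation. Binders that were not confirmed were assigned kon 10^3 […] and koff 10^−2 s^−1. The kdka model, run with slow- or fast-dissociation settings and keeping the better fit, gave the rates, and KD was taken as koff/kon from the median values for each construct.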

Assay [2] has as its target T2, mouse programmed cell death protein 1 Fc fusion protein (mPD-1-Fc), mPD-1 C60S (aa 25-167) (Mus musculus, UniProt Q02242, stabilised).
T2 construct: not cleaved; source: Expi293F, purified (Protein A, SEC; dimeric fraction); not shown: Fc (human), C-terminal, kept
The assay is described as above. The settings on record: one partner purified. The gist of the method:
as §1

T1 sequence (Q15116 24-167 C93S): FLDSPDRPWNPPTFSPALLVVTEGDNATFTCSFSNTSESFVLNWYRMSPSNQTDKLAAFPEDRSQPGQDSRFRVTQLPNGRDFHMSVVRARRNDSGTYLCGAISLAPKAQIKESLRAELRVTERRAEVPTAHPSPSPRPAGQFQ

B1: toripalimab Fab L.V99M (Fab, V domains shown)
VH: QGQLVQSGAEVKKPGASVKVSCKASGYTFTDYEMHWVRQAPIHGLEWIGVIESETGGTAYNQKFKGRVTITADKSTSTAYMELSSLRSEDTAVYYCAREGITTVATTYYWYFDVWGQGTTVTVSS
VL: DVVMTQSPLSLPVTLGQPASISCRSSQSIVHSNGNTYLEWYLQKPGQSPQLLIYKVSNRFSGVPDRFSGSGSGTDFTLKISRVEAEDVGVYYCFQGSHMPLTFGQGTKLEIK
notes: as the heavy chain of Sm3; light chain of Sm3 with this change; numbers count from the chain's first residue; source: Brevibacillus, culture supernatant (ammonium sulfate precipitate); not shown: 6xHis, C-terminal, kept; 6xHN, C-terminal, kept
In assay [1], B1 showed a Kd of 1.43 nM, a koff of 3.17e-05 s⁻¹ and a kon of 22100 M⁻¹ s⁻¹. Moreover, in assay [2], the affinity, expressed as Kd, was 590 nM; the koff turned out to be 0.00702 s⁻¹; the kon worked out at 11900 M⁻¹ s⁻¹.

B2: toripalimab Fab L.V99W (Fab, V domains shown)
VH: QGQLVQSGAEVKKPGASVKVSCKASGYTFTDYEMHWVRQAPIHGLEWIGVIESETGGTAYNQKFKGRVTITADKSTSTAYMELSSLRSEDTAVYYCAREGITTVATTYYWYFDVWGQGTTVTVSS
VL: DVVMTQSPLSLPVTLGQPASISCRSSQSIVHSNGNTYLEWYLQKPGQSPQLLIYKVSNRFSGVPDRFSGSGSGTDFTLKISRVEAEDVGVYYCFQGSHWPLTFGQGTKLEIK
notes: as for B1
As for B2, in assay [1], the Kd came to 45.3 nM, the koff is 0.000522 s⁻¹ and the kon was found to be 11500 M⁻¹ s⁻¹. In assay [2], this molecule returned a Kd of 254 nM, a koff of 0.0065 s⁻¹ and a kon of 25600 M⁻¹ s⁻¹.

B3: toripalimab Fab L.V99Q (Fab, V domains shown)
VH: QGQLVQSGAEVKKPGASVKVSCKASGYTFTDYEMHWVRQAPIHGLEWIGVIESETGGTAYNQKFKGRVTITADKSTSTAYMELSSLRSEDTAVYYCAREGITTVATTYYWYFDVWGQGTTVTVSS
VL: DVVMTQSPLSLPVTLGQPASISCRSSQSIVHSNGNTYLEWYLQKPGQSPQLLIYKVSNRFSGVPDRFSGSGSGTDFTLKISRVEAEDVGVYYCFQGSHQPLTFGQGTKLEIK
notes: as for B1
In assay [1], B3 showed a Kd of 8.06 nM, a koff of 6.39e-05 s⁻¹ and a kon of 7930 M⁻¹ s⁻¹. Moreover, in assay [2], the Kd turned out to be 445 nM, the koff turned out to be 0.0167 s⁻¹ and the on-rate (kon) came to 37600 M⁻¹ s⁻¹.

B4: toripalimab Fab L.V99N (Fab, V domains shown)
VH: QGQLVQSGAEVKKPGASVKVSCKASGYTFTDYEMHWVRQAPIHGLEWIGVIESETGGTAYNQKFKGRVTITADKSTSTAYMELSSLRSEDTAVYYCAREGITTVATTYYWYFDVWGQGTTVTVSS
VL: DVVMTQSPLSLPVTLGQPASISCRSSQSIVHSNGNTYLEWYLQKPGQSPQLLIYKVSNRFSGVPDRFSGSGSGTDFTLKISRVEAEDVGVYYCFQGSHNPLTFGQGTKLEIK
notes: as for B1
Consider B4, for which, in assay [1], the Kd turned out to be 3.03 nM, the koff turned out to be 5.61e-05 s⁻¹ and the kon was found to be 18500 M⁻¹ s⁻¹. In assay [2], this molecule yielded a Kd of 169 nM, a koff of 0.00665 s⁻¹ and a kon of 39400 M⁻¹ s⁻¹.

B5: toripalimab Fab L.P100E (Fab, V domains shown)
VH: QGQLVQSGAEVKKPGASVKVSCKASGYTFTDYEMHWVRQAPIHGLEWIGVIESETGGTAYNQKFKGRVTITADKSTSTAYMELSSLRSEDTAVYYCAREGITTVATTYYWYFDVWGQGTTVTVSS
VL: DVVMTQSPLSLPVTLGQPASISCRSSQSIVHSNGNTYLEWYLQKPGQSPQLLIYKVSNRFSGVPDRFSGSGSGTDFTLKISRVEAEDVGVYYCFQGSHVELTFGQGTKLEIK
notes: as for B1
Consider B5, for which, in assay [1], the Kd was less than 0.554 nM, the koff is less than 1e-05 s⁻¹ and the kon stood at 18100 M⁻¹ s⁻¹. In assay [2], the dissociation constant Kd came out at 19.8 nM, the koff worked out at 0.000491 s⁻¹ and the kon was found to be 24800 M⁻¹ s⁻¹.

B6: toripalimab Fab L.P100A (Fab, V domains shown)
VH: QGQLVQSGAEVKKPGASVKVSCKASGYTFTDYEMHWVRQAPIHGLEWIGVIESETGGTAYNQKFKGRVTITADKSTSTAYMELSSLRSEDTAVYYCAREGITTVATTYYWYFDVWGQGTTVTVSS
VL: DVVMTQSPLSLPVTLGQPASISCRSSQSIVHSNGNTYLEWYLQKPGQSPQLLIYKVSNRFSGVPDRFSGSGSGTDFTLKISRVEAEDVGVYYCFQGSHVALTFGQGTKLEIK
notes: as for B1
In the case of B6, in assay [1], the Kd was less than 0.513 nM, the koff is less than 1e-05 s⁻¹ and the kon was 19500 M⁻¹ s⁻¹. Besides, in assay [2], the Kd worked out at 89.8 nM, the koff was 0.00349 s⁻¹ and the association rate constant (kon) was 38900 M⁻¹ s⁻¹.

B7: toripalimab Fab L.P100D (Fab, V domains shown)
VH: QGQLVQSGAEVKKPGASVKVSCKASGYTFTDYEMHWVRQAPIHGLEWIGVIESETGGTAYNQKFKGRVTITADKSTSTAYMELSSLRSEDTAVYYCAREGITTVATTYYWYFDVWGQGTTVTVSS
VL: DVVMTQSPLSLPVTLGQPASISCRSSQSIVHSNGNTYLEWYLQKPGQSPQLLIYKVSNRFSGVPDRFSGSGSGTDFTLKISRVEAEDVGVYYCFQGSHVDLTFGQGTKLEIK
notes: as for B1
In assay [1], B7 returned a Kd of less than 1.32 nM, a koff of less than 1e-05 s⁻¹ and a kon of 7580 M⁻¹ s⁻¹. For the same molecule, in assay [2], the affinity, expressed as Kd, was 47.4 nM; the koff came out at 0.00142 s⁻¹; the kon amounted to 30100 M⁻¹ s⁻¹.

B8: toripalimab Fab L.V99P (Fab, V domains shown)
VH: QGQLVQSGAEVKKPGASVKVSCKASGYTFTDYEMHWVRQAPIHGLEWIGVIESETGGTAYNQKFKGRVTITADKSTSTAYMELSSLRSEDTAVYYCAREGITTVATTYYWYFDVWGQGTTVTVSS
VL: DVVMTQSPLSLPVTLGQPASISCRSSQSIVHSNGNTYLEWYLQKPGQSPQLLIYKVSNRFSGVPDRFSGSGSGTDFTLKISRVEAEDVGVYYCFQGSHPPLTFGQGTKLEIK
notes: as for B1
In assay [1], B8 registered a Kd of 19.8 nM, a koff of 0.000192 s⁻¹ and an on-rate constant (kon) of 9660 M⁻¹ s⁻¹. In assay [2], the Kd amounted to 24.7 nM, the koff was 0.0007 s⁻¹ and the kon turned out to be 28300 M⁻¹ s⁻¹.

B9: toripalimab Fab L.V99S (Fab, V domains shown)
VH: QGQLVQSGAEVKKPGASVKVSCKASGYTFTDYEMHWVRQAPIHGLEWIGVIESETGGTAYNQKFKGRVTITADKSTSTAYMELSSLRSEDTAVYYCAREGITTVATTYYWYFDVWGQGTTVTVSS
VL: DVVMTQSPLSLPVTLGQPASISCRSSQSIVHSNGNTYLEWYLQKPGQSPQLLIYKVSNRFSGVPDRFSGSGSGTDFTLKISRVEAEDVGVYYCFQGSHSPLTFGQGTKLEIK
notes: as for B1
In assay [1], B9 yielded an equilibrium dissociation constant (Kd) of less than 1.16 nM, a koff of less than 1e-05 s⁻¹ and a kon of 8660 M⁻¹ s⁻¹. Besides, in assay [2], binding was characterised by a dissociation constant (Kd) of 4.51 nM, the koff stood at 6.95e-05 s⁻¹ and the kon came out at 15400 M⁻¹ s⁻¹.

B10: toripalimab Fab H.E52Y (Fab, V domains shown)
VH: QGQLVQSGAEVKKPGASVKVSCKASGYTFTDYEMHWVRQAPIHGLEWIGVIYSETGGTAYNQKFKGRVTITADKSTSTAYMELSSLRSEDTAVYYCAREGITTVATTYYWYFDVWGQGTTVTVSS
VL: DVVMTQSPLSLPVTLGQPASISCRSSQSIVHSNGNTYLEWYLQKPGQSPQLLIYKVSNRFSGVPDRFSGSGSGTDFTLKISRVEAEDVGVYYCFQGSHVPLTFGQGTKLEIK
notes: heavy chain of Sm3 with this change; numbers count from the chain's first residue; as the light chain of Sm3; source: Brevibacillus, culture supernatant (ammonium sulfate precipitate); not shown: 6xHis, C-terminal, kept; 6xHN, C-terminal, kept
With B10, in assay [1], the Kd was determined as 49.4 nM, the koff came to 0.000629 s⁻¹ and the kon came to 12700 M⁻¹ s⁻¹. In assay [2], this molecule showed a Kd of 600 nM, a koff of 0.149 s⁻¹ and a kon of 247000 M⁻¹ s⁻¹.

B11: toripalimab Fab L.V99Y (Fab, V domains shown)
VH: QGQLVQSGAEVKKPGASVKVSCKASGYTFTDYEMHWVRQAPIHGLEWIGVIESETGGTAYNQKFKGRVTITADKSTSTAYMELSSLRSEDTAVYYCAREGITTVATTYYWYFDVWGQGTTVTVSS
VL: DVVMTQSPLSLPVTLGQPASISCRSSQSIVHSNGNTYLEWYLQKPGQSPQLLIYKVSNRFSGVPDRFSGSGSGTDFTLKISRVEAEDVGVYYCFQGSHYPLTFGQGTKLEIK
notes: as for B1
As for B11, in assay [1], the Kd is 5.01 nM, the koff came out at 0.000155 s⁻¹ and the kon came to 30900 M⁻¹ s⁻¹. In assay [2], this molecule showed a Kd of 576 nM, a koff of 0.0369 s⁻¹ and a kon of 63900 M⁻¹ s⁻¹.
